The values below come from the RNAGym collection of RNA variant scans (doi:10.7554/elife.80360).

The chains are these.
B1: Hairpin Ribozyme (parent)
chain: GUCCUCUUUCACGUGCGCGUGAAAGAGAGAAGUGAACCAGAGAAACACACGUUGUGGUAUAUUACCUGGUA

In this data set the parent is B1. The data set can be described thus: self-cleavage, relative activity (ratio to wild type); higher = more cleavage; co-transcriptional.
As for GUCCUCUUUCACGUGCGCGUGAAAGAGAGAAGUGUACCAGAGAAACACACGUUGCGGUAUAUUACCUGGUA, the self-cleavage worked out at 0.274.

With GUCCUCUUUCACGUGCGCGUGAAAGAGAGAAGUGUACCAGAGAAACACACGUUGGGGUAUAUUACCUGGUA, the self-cleavage was 0.281.

For GUCCUCUUUCACGUGCGCGUGAAAGAGAGAAGUGCACCAGAGAAACACACGUUGUGGUAUAUUACCUGGCA, the self-cleavage came to 1.01.

Take GUCCUCUUUCACGUGCGCGUGAAAGAGAGAAGUGUACCAGAGAAACACACGUUGUGGUAUAGUACCUGGUA: the self-cleavage is 0. The figure for GUCCUCUUUCACGUGCGCGUGAAAGAGAGAAGUGUACCAGAGAAACACACGUUGUGGUAUACUACCUGGUA is 0.0853; for GUCCUCUUUCACGUGCGCGUGAAAGAGAGAAGUGUGCCAGAGAAACACACGUUGUGGUAUAUUACCUGGUA it is 0.901; for GUCCUCUUUCACGUGCGCGUGAAAGAGAGAAGUGUCCCAGAGAAACACACGUUGUGGUAUAUUACCUGGUA it is 0.264.

Take GUCCUCUUUCACGUGCGCGUGAAAGAGAGAAGUGUACCAGAGAUACACACGUUGUGGUAUAUUACCUGGUA: the self-cleavage is 0.0832. The figure for GUCCUCUUUCACGUGCGCGUGAAAGAGAGAAGUGUACCAGAGACACACACGUUGUGGUAUAUUACCUGGUA is 0.267. Take GUCCUCUUUCACGUGCGCGUGAAAGAGAGAAGUGUACCAGAGAAACACACGUUGUGGUAUAUUACCUGGGA: the self-cleavage was 0.874. Take GUCCUCUUUCACGUGCGCGUGAAAGAGAGAAGUGUACCAGAGAAACACACGUUGUGGUAUGUUACCUGGUA: the self-cleavage came to 0.137.

Regarding GUCCUCUUUCACGUGCGCGUGAAAGAGAGAAGUGUACGAGAGAAACACACGUUGUGGUAUAUUACCUGGUA, the self-cleavage worked out at 0.235.

As for GUCCUCUUUCACGUGCGCGUGAAAGAGAGAAGUGUACCAGAGAAACACAUGUUGUGGUAUAUUACCUGGUA, the self-cleavage stood at 0.18. In the case of GUCCUCUUUCACGUGCGCGUGAAAGAGAGAAGUGGACCGGAGAAACACACGUUGUGGUAUAUUACCUGGUA, the self-cleavage was found to be 0.348. As to GUCCUCUUUCACGUGCGCGUGAAAGAGAGAAGUGGACAAGAGAAACACACGUUGUGGUAUAUUACCUGGUA, the self-cleavage stood at 0.162. For GUCCUCUUUCACGUGCGCGUGAAAGAGAGAAGUGUACCAGAGAAACACACGUUGUGGUAUAUUACCUGCUA the value was 0.368; for GUCCUCUUUCACGUGCGCGUGAAAGAGAGAAGUGUACCAGAGAAACCCACGUUGUGGUAUAUUACCUGGUA, 0.258. For the variant GUCCUCUUUCACGUGCGCGUGAAAGAGAGAAGUGUACCAGAGAAACACACGUUGUGUUAUAUUACCUGGUA, the self-cleavage was 0.311. For GUCCUCUUUCACGUGCGCGUGAAAGAGAGAAGUGUACCAGAGAAACACACGUUGUGCUAUAUUACCUGGUA the value was 0.116; for GUCCUCUUUCACGUGCGCGUGAAAGAGAGAAGUGUACCAGAGAAACACACGUUGUGGUAUAUUUCCUGGUA, 0.178.

In the case of GUCCUCUUUCACGUGCGCGUGAAAGAGAGAAGUGUACCAGAGAAACACACGUUGUGGUAUAUUGCCUGGUA, the self-cleavage was 0.465. GUCCUCUUUCACGUGCGCGUGAAAGAGAGAAGUGGACCAGAGAAACACACGGUGUGGUAUAUUACCUGGUA: the self-cleavage stood at 0.97. Regarding GUCCUCUUUCACGUGCGCGUGAAAGAGAGAAGUGACCCAGCGAAACACACGUUGUGGUAUAUUACCUGGUA, the self-cleavage stood at 0.401. In the case of GUCCUCUUUCACGUGCGCGUGAAAGAGAGAAGUGACCCAGUGAAACACACGUUGUGGUAUAUUACCUGGUA, the self-cleavage stood at 0.92. Turning to GUCCUCUUUCACGUGCGCGUGAAAGAGAGAAGUGACCCUGAGAAACACACGUUGUGGUAUAUUACCUGGUA, the self-cleavage was 0.137. As to GUCCUCUUUCACGUGCGCGUGAAAGAGAGAAGUGACCCGGAGAAACACACGUUGUGGUAUAUUACCUGGUA, the self-cleavage worked out at 0.363. In the case of GUCCUCUUUCACGUGCGCGUGAAAGAGAGAAGUGGACCAGAGAAACACACGUUGUGGUAUAUUACCUGGUC, the self-cleavage was 1.16. Consider GUCCUCUUUCACGUGCGCGUGAAAGAGAGAAGUGGACCAGAGAAACACACGUUGUGGUAUAUUACCUGGUG, for which the self-cleavage is 0.542. Take GUCCUCUUUCACGUGCGCGUGAAAGAGAGAAGUGACCCAGAGAAACACACGUUGUGGUAUAUUACCUGGUA: the self-cleavage came to 0.659.

GUCCUCUUUCACGUGCGCGUGAAAGAGAGAAGUGGACCAGAGCAACACACGUUGUGGUAUAUUACCUGGUA: the self-cleavage is 0.118. On to GUCCUCUUUCACGUGCGCGUGAAAGAGAGAAGUGGACCAGAGAAACACACGUUGUGGUAUAUUACCUCGUA, for which the self-cleavage amounted to 0.236. As for GUCCUCUUUCACGUGCGCGUGAAAGAGAGAAGUGGACCAGAGAAACACACGUUGUGGUAUAGUACCUGGUA, the self-cleavage was 0.139.

GUCCUCUUUCACGUGCGCGUGAAAGAGAGAAGUGGACCAGAGAAACACACGUUGUGGUAUAUGACCUGGUA: the self-cleavage was found to be 0.221.

Take GUCCUCUUUCACGUGCGCGUGAAAGAGAGAAGUGGACCAGAGAAACACACGUUGUGGUAUAUAACCUGGUA: the self-cleavage stood at 0.232. As for GUCCUCUUUCACGUGCGCGUGAAAGAGAGAAGUGGACCAGAGAAACACACGUUGUGGUAUAUCACCUGGUA, the self-cleavage is 0.233. In the case of GUCCUCUUUCACGUGCGCGUGAAAGAGAGAAGUGACCCAGAGAACCACACGUUGUGGUAUAUUACCUGGUA, the self-cleavage is 0.236. For the variant GUCCUCUUUCACGUGCGCGUGAAAGAGAGAAGUGGACCAGAGAAACACCCGUUGUGGUAUAUUACCUGGUA, the self-cleavage stood at 0.12. Regarding GUCCUCUUUCACGUGCGCGUGAAAGAGAGAAGUGGACCAGAGAAACACGCGUUGUGGUAUAUUACCUGGUA, the self-cleavage came to 0.433.
